# Measurements taken from the DeepSol protein solubility set.
# Test: soluble on expression in E. coli; label from the status in PepcDB or PDB records
row,Sequence,soluble on expression in E. coli
1,MNEQYSALRSNVSMLGKVLGETIKDALGEHILERVETIRKLSKSSRAGNDANRQELLTTLQNLSNDELLPVARAFSQFLNLANTAEQYHSISPKGEAASNPEVIARTLRKLKNQPELSEDTIKKAVESLSLELVLTAHPTEITRRTLIHKMVEVNACLKQLDNKDIADYEHNQLMRRLRQLIAQSWHTDEIRKLRPSPVDEAKWGFAVVENSLWQGVPNYLRELNEQLEENLGYKLPVEFVPVRFTSWMGGDRDGNPNVTADITRHVLLLSRWKATDLFLKDIQVLVSELSMVEATPELLALVGEEGAAEPYRYLMKNLRSRLMATQAWLEARLKGEELPKPEGLLTQNEELWEPLYACYQSLQACGMGIIANGDLLDTLRRVKCFGVPLVRIDIRQESTRHTEALGELTRYLGIGDYESWSEADKQAFLIRELNSKRPLLPRNWQPSAETREVLDTCQVIAEAPQGSIAAYVISMAKTPSDVLAVHLLLKEAGIGFAMPVAPLFETLDDLNNANDVMTQLLNIDWYRGLIQGKQMVMIGYSDSAKDAGVMAASWAQYQAQDALIKTCEKAGIELTLFHGRGGSIGRGGAPAHAALLSQPPGSLKGGLRVTEQGEMIRFKYGLPEITVSSLSLYTGAILEANLLPPPEPKESWRRIMDELSVISCDVYRGYVRENKDFVPYFRSATPEQELGKLPLGSRPAKRRPTGGVESLRAIPWIFAWTQNRLMLPAWLGAGTALQKVVEDGKQSELEAMCRDWPFFSTRLGMLEMVFAKADLWLAEYYDQRLVDKALWPLGKELRNLQEEDIKVVLAIANDSHLMADLPWIAESIQLRNIYTDPLNVLQAELLHRSRQAEKEGQEPDPRVEQALMVTIAGIAAGMRNTG,soluble
2,MNERFGELNFVTPDACSLRRMANKYYPYTMRQSFPLWTSISKEVQIVEGRELPVMQDLADRHPEINKMYGSAEELWENLKTFIDFQGNLQYFEVNPCVSYNHRFFIHKDISSDKKFLYKNDIFLSIQDNLIVRKPVLRNRVSLFMLAYFLKYHEKKLSTSCEFVEYVEKDFDNLINELNDFLLDFIKKPKPVANDANFDWKKVFTRLRNMLPEPMTEEEMSPLADVLKRYFETYPRAQAVGVLNMIEQFCKMMIPRLQKIMDKRPEWFLPNRTKNAKPVLRYFIDGKKPFVMVPEYEIATKEKFQYTDSSFMATGIDTIDLSDISLVASSNGGSLSDFYCIRFNIERTKHTARPIRTTTGTFCKLSADVLLEHLRDLFFGSRVFQSPTRSMFNGYVISMNEIFNSNAQGIYFLEESIIEFVEKISSGLFGTPESKTIRDVPPKGFTVGDVHSELKYLGLLEFFPNISNYAEIAYKKVVAEKKMKILRTCDMFDAVEICMMLAVFNGYPKLAQFLHSQHACHRIQGLQCKKCELEKKHPMMNSWLYPYMEVEEDEKVDSTSSDDEEKRTSTSELAGNGRKSEQKKLAVKDPEPSTMEKETRKSKCCESTKDQLKAFQEQVEALKKEMKELETAMSKNLKN,not soluble
3,MNERKKSIDELLSDLGVLEEAPVEVELKESGTPEAQGDPRAFLEEFLGGLLLLLDPGHRLEVRVEGETLKAEVKGGDLGRFIGKEGRTLRAVEHLARVVLARRFGTGYRLVLDAAGYRSRAEARIRRLAEEAALTVAMTGEPLHLPPMPPGERRIVHMLLKNHPRVTTESQGEGEERHVVVYPRREAQG,soluble
4,MNESGFLIDTHAHIDGHDFAADFDAMLSRAWEAGLSHIVTVGADLESSRAAVALAGRHERIWCAVGIHPHDAGRVTDRCYDEIRTLAQGNPKVAAIGEIGLDFFRDRSPRDEQEQVFRRFIRLARELALPIVVHDRDAHERVMAILREEKARDVGGVLHCFSGDLAMARECVDMGFLISIPGTVTYPSNEALREVVRGVKIEHLLVETDCPYLTPVPHRGKRNEPAYVRLTAEKVAELKGLSLEDVGRITSLNARRLFGIGESDQAARIAYRIRNSLYLNITNRCSNRCSFCAKFDDYTVKGHHLRLDHEPDSAEVLAAVGEPGPVDEIVFCGFGEPMLRLDLIVEVARELKKRGFRIRINTDGQANLVHGRNVLPELQGLVDCISVSLNAADADTYARLCNTPFGTNGFNGICRFLEEARLYIPTVVATAVTVPGIDVAAVRALAESLGVEFREREFAEVGLEHHHHHH,soluble
5,MNESVDTDEATTPLVSAIIPTYGRNERLSSAIQSVLEQTYDNIELFVVDDASPTPVRETLDSFDPTVENSFRILRHDENQGANAARNTGIRASDGRYVAFLDDDDQWDETKITKQVQAFQESDSETGVVYTGVRKDGPEGTTVSTPVASGDVMKDLLTGTNFGQFSSVMVDTTVIETAGLPDERLPAWQDREWFFRLAQHTHFRPVRETLTYRQTGLPGSITKKYEQKRDVAYPMLISKHDWVAAEYGIYYERMFKATMRRSLARSAVRADRYKEARKYFLLSALANPLYWPVYPHLFASLGGKWSYESIASLRQQVTNGPASGT,not soluble
6,MNETEFYAYHIVTRKKMHIGQMIPFNKNQHNTLYHFFFEREQLNANGEDGIQILNNHYKNDELHINNENAKVVISYMDQTIRAARETIVEMVRLQEFPEYPSRLSCLYAAKSYEDALKWKALFDSYNREVLQIVKLRVIGSSFEGDGNLLPKEDGIPFSQKIEQARKYWKGNIRNELPELLINGEIEVVEIIDDFSSIHI,soluble
7,MNFFKRKFSFSEDEGEPMDDVNSGPPSSFSFQSIANKVSNTISAPTSPAKSRESLAAALERSLNHDRSRGEPLMKDAKVLLVIDSHHVDWSKYFRNHTEYAIRVEQGDIDELDVMCTEKNCTVELNTPGKDVRTFTPSAVFLGAGATRCAQLKTITRAFIAAHIPFLNSHTSAVAFLDRNNLKKQLKKITLSDGASIPMLPIVHYPHFHKFHQSQSSTYPMVVSVNEGFQGIGKIKVNNHEELCDVEGMLQIMSKGDTEVEVQPFVDAKYDLHIQKIGHEYKTFIRRGICKHWKSNVGSSVLEQISTCERHKKYLKAITDHVGPMHICSIDILVSKEGREFVHDVNDVIAYFGESAEDDRRAASLLLRALVAPRITSPIAAEPPATSPTTSAVTNGHGNHGPAPAVPTRRLPPHPSSSSAAPPRGHMSDKVESRHKDHYDPPPQIPRTGSRESVSYVDDTMGQLKRTFAGFFGE,not soluble
8,MNFNKLKFGATIGIIGGGQLGKMMAQSAQKMGYKVVVLDPSEDCPCRYVAHEFIQAKYDDEKALNQLGQKCDVITYEFENISAQQLKLLCEKYNIPQGYQAIQLLQDRLTEKETLKSAGTKVVPFISVKESTDIDKAIETLGYPFIVKTRFGGYDGKGQVLINNEKDLQEGFKLIETSECVAEKYLNIKKEVSLTVTRGNNNQITFFPLQENEHRNQILFKTIVPARIDKTAEAKEQVNKIIQSIHFIGTFTVEFFIDSNNQLYVNEIAPRPHNSGHYSIEACDYSQFDTHILAVTGQSLPNSIELLKPAVMMNLLGKDLDLLENEFNEHPEWHLHIYGKSGRKDSRKMGHMTVLTNDVNQTEQDMYAKFEGSN,soluble
9,MNGGEKLESIPIDLIIEIHSRLPAESVARFRCVSKLWGSMFRRPYFTELFLTRSRARPRLLFVLQHNRKWSFSVFSSPQNQNIYEKPSFVVADFHMKFSVSTFPDFHSCSGLIHFSMMKGAYTVPVVCNPRTGQYAVLPKLTRTRYENSYSFVGYDPIEKQIKVLFMSDPDSGDDHRILTLGTTEKMLGRKIECSLTHNILSNEGVCINGVLYYKASRIVESSSDDDTSDDDDDDHERSDVIVCFDFRCEKFEFIVICFYGQLINSVQLSLKQKSHQKLDLII,soluble
10,MNGKEIGEKNSKKYSFEVDSRSVYKCVQCGTCRSVCPVFDVVGWESANTRGRMLIIKSLLEGRPPSEDVLPSLASCTTCGICAAKCPAGANPPEVVEAARAQLVKCGVTTEAQLEHHHHHH,not soluble
11,MNGNIIGEDEKGVALFVEDNSGNEHEIGVNSEGDIFHHADNVIPDNPSERSDKEDETFSQVRRFARYHVYREKGYDTIPTDENPDRIAAVLLAIIDLDDEEFENRFKPLYKQVMSHERPDVEPSLDLPDSVYHGGEPCYKQNIYLEESLEEMKSTVSEQLVESIGQEQITEVLQADSGDFFSRAASLFGGPNGNYGGLTIDGISGIDTVHLVDGKEQTIKSDDPFERGPDARLELYPSNFDFEAFRFYIGYNLICQIRDCFIGMGVEPPAQYRVLGPGKDKYTGKYHAFDFYPEYHNPGATIPGYIRPAPI,not soluble
12,MNGNSTNNEQLQQELATTQDQVASIIESFVELGVSIYDFPGTPEATKGMITNLQRNVDRLYKLNVRSNDPQSSLSKVDIPLEVVQYIEDGRNPDIYTREFVEAIRRSNQYQRGKMHGLKQLRDSLADKIVDEFPELKEPVEDIIKRTSPIDNVSNTH,not soluble
13,MNGYIINIRYQQMGRVIYMFFFAIFGIQDKNKHIGNCNNIVCPSCGRLSMYEVYKYYKYFHIFFLPIFKWDVRYIVKTSCCGCLYELDPLVGKEFEKNPSTEIREENLQRIDRYSPFKYCSNCRTEVPVEYSYCPYCGERLLEHHHHHH,not soluble
14,MNHKAFAKFPSSASISPNPFTVSIPDEQLDDLKTLVRLSKIAPPTYESLQADGRFGITSEWLTTMREKWLSEFDWRPFEARLNSFPQFTTEIEGLTIHFAALFSEREDAVPIALLHGWPGSFVEFYPILQLFREEYTPETLPFHLVVPSLPGYTFSSGPPLDKDFGLMDNARVVDQLMKDLGFGSGYIIQGGDIGSFVGRLLGVGFDACKAVHLNFCNMSAPPEGPSIESLSAAEKEGIARMEKFMTDGYAYAMEHSTRPSTIGHVLSSSPIALLAWIGEKYLQWVDKPLPSETILEMVSLYWLTESFPRAIHTYREWVPTASAPNGATPYQKELYIHKPFGFSFFPKDLVPVPRSWIATTGNLVFFRDHAEGGHFAALERPRELKTDLTAFVEQVWQKGRSHHHHHH,soluble
15,MNIQAIDTRHGTANQHSFSNGNCLPYTGVPFGMNFYAPQTTDQKGSWWFHPEDRTFQGYRVTHQPSPWMGDFSHLLMTPVSGSLSELSLFHAQSSYRPEESLFSPVEINLTQLRYQITSQLIPSMYGGILTIDYQQKDNHLLLTLPGRYQVKQLDDHQVAVKVINYSGCEDPDFSFYFVLHFEQPLTKWFAPSSGLEHHHHHH,not soluble
16,MNITVPKKLLSDQLSLLERIVPSRSANPLYTYLGLYAEEGALILFGTNGEVDLEVRLPAEAQSLPRVLVPAQPFFQLVRSLPGDLVALGLASEPGQGGQLELSSGRFRTRLSLAPAEGYPELLVPEGEDKGAFPLRTRMPSGELVKALTHVRYAASNEEYRAIFRGVQLEFSPQGFRAVASDGYRLALYDLPLPQGFQAKAVVPARSVDEMVRVLKGADGAEADLALGEGVLALALEGGSGVRMALRLMEGEFPDYQRVIPQEFALKVQVEGEALREAVRRVSVLSDRQNHRVDLLLEEGRILLSAEGDYGKGQEEVPAQVEGPGMAVAYNARYLLEALAPVGDRAHLGISGPTSPSLIWGDGEGYRAVVVPLRV,soluble
17,MNIVLMGLPGAGKGTQAERIVEKYGIPHISTGDMFRAAMKEETPLGLEAKSYIDKGELVPDEVTIGIVRERLSKSDCERGFLLDGFPRTVAQAEALEEILEEMGRPIDYVINIQVDKEELMERLTGRRICSVCGTTYHLVFNPPKTPGICDKDGGELYQRADDNEETVTKRLEVNMKQTAPLLAFYDSKEVLVNVNGQQDIQDVFADVKVILGGLKQ,soluble
18,MNKANPKNIPPLAPKKVFIKTYGCQMNVYDSQRMTDSLSSKGYVATQTPNDADLILVNTCHIREKAAEKLYSDLGRLRVMRQERTPDKPLMVGVTGCVAQAEGSEILRRAPIVDLVIGPQMYHRLPDLLEQTKQGKKIVATEYAVEDKFAHLPPHNKRAVRKRGVSAFLTVQEGCDKFCTFCVVPYTRGAEISRSVEQITEEARQLIEAGVKEITLLGQNVNGWHGQNVNGKTWRLGDLLYHLAKLDGLKRLRYTTSHPRDMDDSLIAAHRDLDILMPYLHLPVQSGSDRILKAMNRQHKSIHYLQLIEKIRNARPDIAFSGDFIVGFPGETDEDFEETIKLIKQVEYSSAYSFKYSPRPGTVGATMKNHVEEAVKDARLQHLQVLLLEQQNAFLRSKIGQTTDVLIEKAGRHSGQMVGRSPWLLPVVVDTQASTGTVIPIHIKNTSSNSFVGEMTNM,not soluble
